Data: the nanobody polyreactivity screen of Harvey et al. (2022)

Assay: yeast display, Sf9 membrane polyspecificity reagent, FACS + sequencing; frameworks hold sequencing errors
How it was run: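 Synthetic nanobody libraries on Saccharomyces cerevisiae BJ5465 were galactose-induced for 36–48 hours, stained 1 hour at 4 °C with 10% biotinylated, detergent-solubilized Sf9 membrane reagent and enriched on streptavidin microbeads. FACS then separated cells into low and high (top ~1%) gates by anti-HA (expression) and streptavidin (reagent binding) fluorescence. Genes were colony-PCR amplified, MiSeq 2 × 250 sequenced and CDR-length filtered. A clone's polyreactivity label is that of its gate of origin.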

Row | Sequence | polyreactivity (PSR sort gate)
1 | QLQLVESGGGLVQAGGSLRLSCAASGSTFSVYAMGWYRPAPGKERELVAAISSGGNTKYADSVKGRFTISRDNAKNTVYLQMNSLKPEDTAVYYCNADSQRPAYWDGYWGQGTQVTVSS | low polyreactivity
2 | QVQLVESGGGLVQAGGSLRLRCAASGSIFFFYAMGWYRQAPGKERELVAAISKSPSSTYYADSVKGRFTISRDNAKNTVYLQMNSLKPEDTAVYYCNNGYSGIQYYYWGHGTQVTVSS | low polyreactivity
3 | QVQLVESGGGLVQAGGSLRLSCAASGRTFWYYTMGWYIQAPGKERELVASITYRGGSTYYADSVKGRFTISRDNAKNTVYLQMNSLKPEDTAVYYCNARYKRYSYDYWGQGTQVTVSS | high polyreactivity
4 | QVQLVESGGGLVQAGGSLRLSCAASGITFRDNGMGWYRQAPGKESELVAAITSGGSTYYADSVKGRFTISRDNAKNTVYLQMNSLKPEDTAVYYCAAKRIKRRGWRQLSWYDSWGQGTQVTVSS | high polyreactivity
5 | QVQLVESGGGLVQAGGSLRLSCAASGSIFKYYAMGWYRQAPGKERELVAAISRSGSNTYYADSVKGRFTISRDNPKNTVYLQMNSLKPEDTAVYYCAAVKGPERPTSPYDYWGQGTQVTVSS | high polyreactivity
6 | QVQLVESGGGIVQAGGSLRLSCAASGRIFYINAMGWYRQAPGKERELVAAISTSGGCTYYADSVKGRFTISRDNAKKTVYLQMNSLKPEVTAVYYCAAALRYGYYGREYYYWGQGTKVTVSS | high polyreactivity
7 | QVQLQESGGGLVQASGSLRLSCAASGNIFPDYFMGWYRLATGKEREFVANITGGSTTNYADSVKGRFTISRDNANNTVYLQIYSLKPEDTAVYYCAVYFGTVQHAYWGQGTQVTVSS | high polyreactivity
8 | QVQLVESGGCLVQAGGSLRLSSAASGFTFDKYAMGWYRQAPGKEMELVAAISGSGGTTYYADSVKGRFTISRDNAKNTVYLQMNSLKPEDTAVYYCATRLYSIYSYGYWGQGTQVTVSS | high polyreactivity
9 | QVQLVESGGGLVQAGGSLRLSCAASGSIFRKNAMGWYRQAPGKERELVAAITGTGRTTYADSEKGRFTISRDNAKNTVYLQMNSLKPEDTAVYYCAADVNYYQHRLYYWGQGTQVSVSS | low polyreactivity
10 | QVQLVESGGGLVQAGGSLRLSCAASGIIFPTYDMGWYRQAPGKERELVAAITWSTGSTTYADSVKGRFTISRDNAKNTVYLQMNSQKPEDTAVYYCNKDSEGSGGEFDYWGQGTQVTVSS | low polyreactivity
11 | QVQLVESGGGLVQAGGSLRLSCAASGIIFTLYATGWYRQAPGKERELVAAISGSGGSTYYADSVKGRFTISRDNAKNTVYLQMNSLKPEDTAVYYCAARGVRGTGLDSRMYYWGQGTQVTVSS | high polyreactivity
12 | QVQLVESGGRLVQAGGSLRLSCAASGFIFFTYAMGWYRQAPGKERELVAVITRGGSTYYADSVKGRFTISRDNAKNTVYLQMNSLKPEDTAVYYCAARRYRYFDGTVPLDYWGQGTQVSVSS | high polyreactivity
13 | QVQLLESGGGLVQAGGSLRLSCAASGGTFPQYAMGWYRKAPGKERELVAVNTRSGRTNYADTVKARFTISRDNAKNTVYVQMNSLKPEDTAVYYCNADEVDDEVSPDLTEMDYWGQGTQVTVSS | low polyreactivity
14 | QVQLVESGGGLVQAGGSLRLSCAASGFTFAVYAMGWYRQAPGKERELGAAISRSGTRTYYADSVKGRFTFSRDNAKNTVYLQMNSLKPEDTAVYYCATVVILIYDYWGQGTQVSVSS | low polyreactivity
15 | QVQLVESGGGLVQAGGSLRISCAASGRTFWKYVMGWYRQAPGKEMELVAVISRPAGSTYYADSVKGRFTISRDNAKNTVYLQRNSLKPEDTAVYYCDKRPKNKPVLGDYDHWGQGTQVTVSS | low polyreactivity
16 | PVQLVESGGGLVQAGGSLRLSCAASGFISQDNAMGWYRQAPAKERELVATISGSGGITYYADSVKGRFTISRANAKTTVYVQMNSLKPEDTAVYYCNNEISYLSWGYDYWGQGTQVTVSS | low polyreactivity

Row | Sequence | polyreactivity (PSR sort gate)
17 | QVQLVESGGGLVQAGGSLRLSCAASGFIFAYYAQGWYRQAPGKERELVAAITSRGGSTYYADSVKGRFTSSRDNAKNTVYVQMNSLKPEDTAVYYCAGRGYQRQYYYWGQGTQVTVSS | high polyreactivity
18 | QVQLVESGGGLVQAGGSLRLSCAASGRTFGVYAMGWYRQAPGKERELVAGIRWRGGSTYYADSVKGRFTISRDNAKNTVYLQMNSLKPEDTAVYYCAAKVYYLYDSIWAWVIIRYDYWGQGTQVTVSS | low polyreactivity
19 | QVQLVESGGGLVQAGGSLRLSCAASGRIFSRNAMGRYSQAPGKERELVAAIRWRSGSTYYADSVKGRFTISRDNAKNTVYLQMNSLNPEDTAVYYCAASGPGYSRYTQYDSWGQGTQVTESS | high polyreactivity
20 | QVQLVESGGGLVQAGGSLRLSCADSGGTFFGYAMGWYRQAPGKERELVAAIRWSDGRTYYADSVKGRFTISRDNAKNTVFLQMNSLKPEDTAVYYCNADDARLFDYWGQGTQVTVSS | low polyreactivity
21 | QVQLVESGGGLVQAGGSLRLSCAASGRIFTYNTMGWYRQAPGKERELVAAISGSGGITYYADSVKGRFTISRDNAKNTVYLQMNSLKPEDTAVYYCNTVPLYVSRYPYDYWGQGTQVTVSS | low polyreactivity
22 | QVQLVESGGGLVQAGGSLRLSCAASGITFYSYAMGWYRQAPGKERELVAGISGGGGTSYADSVKGRFTISRDNAKNTVYLQMNSLKPEDTAVYYCNVYAYTYYYWAFYTEDYWGQGTQVTVSS | high polyreactivity
23 | QVQLVESGGGLVQAGGSLRLSCAASGRTFNRYGMGWYRQAPGKERELVASITSGGSTNYADSVKGRFTISRDNAKNTVYLQMNSLKPEDTAVYYCAKRSIGRYPRTYDYWGQGTQVTVSS | low polyreactivity
24 | QVQLVESGGGLVQAGGSLRLSCAASGRIFRRYAMGWYRQAPGKEREFVAAITKSGGSTYYADSVKGRFTISRDNAKNTVYLQMNSLKPEDTAVYDCNAYVIRALGYGGYDYWGQGTQVTVSS | high polyreactivity
25 | QVQLVESGGGLVQAGGSLRLSCAASGSTFPYNAKGWYRQAPGKERELVAAIDYSGGSTYADSVKGRFTISRDNAKNTVYLQMNSLKPEDTAVYYCAYCRVVVYDVSGDDEDYDYWRQGTQVTVSS | low polyreactivity
26 | QVQLVESGGGLVQAGGSLRLSCAASGFTFKFNTMGWYRQAPGKERELVAAISWRGGDTSYADSVKGRFTISRDNAKNNVYLQMNSLKPEDTAVYYCAASPRYPYWYDYWGQGTQVTVSS | low polyreactivity
27 | QVQLVESGGGLVQAGGSLSLSCAASGRTFQSYAMGWYRQAPGKERELVATITSRGGSTYYADSVKGRFTISRDNAKYTVYLQMNSLKPEVTAVYYCAKRFKSYLGYDYWGQGTQVTVSS | low polyreactivity
28 | QVQLVESGTGLVQAGGSLRLSCAASGSIFAYYAMGWYRHAPGKERELVAAISSRGGNTYYADSVKGRFTISRDNAKNNVYLQMNSLKPEDTAVYYCAADYQYSYGEYDYWGHGTQVTVSS | high polyreactivity
29 | QVQLVESGGGLVQAGGSLRLSCAASGRIIAIYAMGWYRPAPGKERELVAAISWNSGRTNYADSVKGRFTISRDNAKNTVYLQMNSLKPEDTAVYYCAADGDRYLVSTSYPEYDYWGQGTQVTVTS | low polyreactivity
30 | QVQLVESGGGLVQAGGSLRLSCAASGSTFTNNDMGWYRPAPGKERELVAAITDSDGITYYADSVKGRFTISRDNAKNTVYLQMNSLKPDDSAVYYCAAYYYGSVAQDREYWGQGTQVTVSS | high polyreactivity
31 | QVQLVESGGGLVQAGGSLRLSCAASGIIFADYDMGWYRQAPGKERELVAAITGSGGSTYYADSVKGRFTISRDNEKKTVYLQMNSLKPEDTAVYYCAADYAYSYGYHYGYWGQGTQVTVSS | high polyreactivity
